{"source": "patent US20160222109A1", "about": "(DYAX, published 2016)", "key": {"soluble monkey FcRn [1]": {"target": "T1, soluble monkey FcRn (monkey (cyno), UniProt Q8SPV9 24-297; Q8SPW0 21-119)", "T1 construct": "also called cyno", "T1 sequence (Q8SPV9 24-297, chain 1 of 2)": "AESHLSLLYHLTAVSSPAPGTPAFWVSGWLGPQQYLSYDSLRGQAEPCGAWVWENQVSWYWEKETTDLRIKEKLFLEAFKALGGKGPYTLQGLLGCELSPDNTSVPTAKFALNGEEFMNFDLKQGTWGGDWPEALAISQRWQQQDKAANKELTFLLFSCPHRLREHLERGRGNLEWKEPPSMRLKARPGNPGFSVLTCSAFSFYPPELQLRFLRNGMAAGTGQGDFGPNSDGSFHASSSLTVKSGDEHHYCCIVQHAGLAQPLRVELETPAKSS", "T1 sequence (Q8SPW0 21-119, chain 2 of 2)": "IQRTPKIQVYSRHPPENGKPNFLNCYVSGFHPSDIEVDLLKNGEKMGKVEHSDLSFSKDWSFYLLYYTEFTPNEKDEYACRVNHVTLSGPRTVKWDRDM", "assay": "Biacore, FcRn on chip, pH 6.0"}, "[2]": {"target": "T2, soluble human FcRn (extra-cellular domain of heavy chain and β2M) (human, UniProt P55899 24-297; P61769 21-119)", "T2 construct": "also called shFcRn; soluble hFcRn", "T2 sequence (P55899 24-297 limits assumed, chain 1 of 2)": "as the sequence (Q8SPV9 24-297, chain 1 of 2) above, with D39N, Q44E, S99G, G189S, N190S, M217L, T269S counted along it", "T2 sequence (P61769 21-119 limits assumed, chain 2 of 2)": "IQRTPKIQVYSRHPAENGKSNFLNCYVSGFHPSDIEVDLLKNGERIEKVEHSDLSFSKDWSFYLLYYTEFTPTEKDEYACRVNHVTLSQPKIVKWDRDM", "assay": "Biacore, FcRn on chip, pH 6.0"}, "[3]": {"target": "T3, murine FcRn / murine β2M expressed on 3T3 cells (mouse, UniProt Q61559 22-365; P01887 21-119)", "T3 construct": "whole, on cells; also called mouse FcRn; 3T3 FcRn cells", "T3 sequence (looked up)": "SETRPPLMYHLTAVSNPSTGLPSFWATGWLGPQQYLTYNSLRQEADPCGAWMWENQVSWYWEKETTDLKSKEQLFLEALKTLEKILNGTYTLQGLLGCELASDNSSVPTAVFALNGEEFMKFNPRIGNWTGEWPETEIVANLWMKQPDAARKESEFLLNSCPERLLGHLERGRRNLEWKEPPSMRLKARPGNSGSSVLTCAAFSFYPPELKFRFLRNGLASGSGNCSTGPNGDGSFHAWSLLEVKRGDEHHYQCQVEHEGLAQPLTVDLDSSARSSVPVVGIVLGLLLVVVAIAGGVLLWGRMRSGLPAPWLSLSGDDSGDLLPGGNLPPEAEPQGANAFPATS", "T3 sequence (b2m, looked up)": "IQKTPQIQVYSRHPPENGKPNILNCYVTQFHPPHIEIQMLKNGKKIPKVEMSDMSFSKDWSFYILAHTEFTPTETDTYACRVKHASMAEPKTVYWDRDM", "assay": "FACS binding, Alexa488-mAb, pH 7.4"}, "[4]": {"target": "T4, rat FcRn / rat β2M expressed on cells (rat, UniProt P13599 23-366; P07151 21-119)", "T4 construct": "also called rat FcRn (cells); rat fibroblasts expressing rat FcRn", "T4 sequence": "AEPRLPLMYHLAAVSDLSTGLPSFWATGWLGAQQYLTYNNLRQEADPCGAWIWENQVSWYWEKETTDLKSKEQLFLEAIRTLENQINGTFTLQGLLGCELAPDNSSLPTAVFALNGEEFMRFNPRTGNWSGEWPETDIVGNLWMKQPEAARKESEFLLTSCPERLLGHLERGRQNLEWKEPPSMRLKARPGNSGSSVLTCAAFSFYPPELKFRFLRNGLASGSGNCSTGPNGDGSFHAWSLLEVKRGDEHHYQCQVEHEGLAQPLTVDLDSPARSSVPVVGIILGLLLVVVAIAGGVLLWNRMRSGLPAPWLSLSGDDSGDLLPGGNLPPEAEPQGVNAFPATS", "T4 sequence (b2m)": "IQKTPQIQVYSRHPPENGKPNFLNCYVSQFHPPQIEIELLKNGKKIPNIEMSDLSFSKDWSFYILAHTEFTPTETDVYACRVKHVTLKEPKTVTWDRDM", "assay": "FACS binding, Alexa488-mAb, pH 7.4"}, "[5]": {"target": "T2, soluble human FcRn (extra-cellular …)", "assay": "Biacore, FcRn on chip, pH 7.4; pH 7.4; n = 2"}, "soluble monkey FcRn [6]": {"target": "T1, soluble monkey FcRn", "assay": "Biacore, FcRn on chip, pH 7.4"}, "[7]": {"target": "T2, soluble human FcRn (extra-cellular …)", "assay": "Biacore, FcRn on chip, pH 7.4"}}, "data": [{"binder": "3B3.11 (antibody, also called mAb 3B3.11) heavy: VKLQESGPELVKPGASVKISCKASGYAFSRSWMNWVKQRPGQGLEWIGRIHPGDGDTNYNGKFKGKATLTVAKSSSTAYMQLSSLTSVDSAVYFCANEGSPYFDYWGQGTTLTVSSAKTTPPSVYPLAPGSAAQTNSMVTLGCLVKGYFPEPVTVTWNSGSLSSGVHTFPAVLQSDLYTLSSSVTVPSSTWPSETVTCNVAHPASSTKVDKKLE light: DIQLTQSPTTVAASPGEKITITCSASSSISSNYLHWYQQKPGFSPKLLIYRTSNLASGVPARFSGSGSGTSYSLTIGTMEAEDVATYYCQQGSNIPLTFGAGTKLELKRADAAPTVSIFPPSSEQLTSGGASVVCFLNNFYPKDINVKWKIDGSERQNGVLNSWTDQDSKDSTYSMSSTLTLTKDEYERHNSYTCEATHKTSTSPIVKSFNKNE", "values": [{"measurement": "Kd", "setting": "soluble monkey FcRn [1]", "value": 3.23, "unit": "nM"}, {"measurement": "koff", "setting": "soluble monkey FcRn [1]", "value": 0.000552, "unit": "s⁻¹"}, {"measurement": "Kd", "setting": "[2]", "value": 1.17, "unit": "nM"}, {"measurement": "koff", "setting": "[2]", "value": 0.000176, "unit": "s⁻¹"}, {"measurement": "binding result", "setting": "[3]", "value": "binds"}, {"measurement": "binding result", "setting": "[4]", "value": "no binding"}, {"measurement": "koff", "setting": "[5]", "value": "1.45e-06", "unit": "s⁻¹"}, {"measurement": "Kd", "setting": "soluble monkey FcRn [6]", "value": 3.24, "unit": "nM"}, {"measurement": "koff", "setting": "soluble monkey FcRn [6]", "value": 0.000247, "unit": "s⁻¹"}, {"measurement": "Kd", "setting": "[7]", "value": 0.16, "unit": "nM"}]}]}
